The values below come from publication PMC2700392 (The Journal of Cell Biology, 2009).

The assay has as its target Nup170p (recombinant, released from GST by thrombin) (S. cerevisiae, UniProt P38181 1-1502). The assay is described as follows: pull-down.

Sequence of Nup170p (recombinant, released from GST by thrombin) (P38181 whole entry): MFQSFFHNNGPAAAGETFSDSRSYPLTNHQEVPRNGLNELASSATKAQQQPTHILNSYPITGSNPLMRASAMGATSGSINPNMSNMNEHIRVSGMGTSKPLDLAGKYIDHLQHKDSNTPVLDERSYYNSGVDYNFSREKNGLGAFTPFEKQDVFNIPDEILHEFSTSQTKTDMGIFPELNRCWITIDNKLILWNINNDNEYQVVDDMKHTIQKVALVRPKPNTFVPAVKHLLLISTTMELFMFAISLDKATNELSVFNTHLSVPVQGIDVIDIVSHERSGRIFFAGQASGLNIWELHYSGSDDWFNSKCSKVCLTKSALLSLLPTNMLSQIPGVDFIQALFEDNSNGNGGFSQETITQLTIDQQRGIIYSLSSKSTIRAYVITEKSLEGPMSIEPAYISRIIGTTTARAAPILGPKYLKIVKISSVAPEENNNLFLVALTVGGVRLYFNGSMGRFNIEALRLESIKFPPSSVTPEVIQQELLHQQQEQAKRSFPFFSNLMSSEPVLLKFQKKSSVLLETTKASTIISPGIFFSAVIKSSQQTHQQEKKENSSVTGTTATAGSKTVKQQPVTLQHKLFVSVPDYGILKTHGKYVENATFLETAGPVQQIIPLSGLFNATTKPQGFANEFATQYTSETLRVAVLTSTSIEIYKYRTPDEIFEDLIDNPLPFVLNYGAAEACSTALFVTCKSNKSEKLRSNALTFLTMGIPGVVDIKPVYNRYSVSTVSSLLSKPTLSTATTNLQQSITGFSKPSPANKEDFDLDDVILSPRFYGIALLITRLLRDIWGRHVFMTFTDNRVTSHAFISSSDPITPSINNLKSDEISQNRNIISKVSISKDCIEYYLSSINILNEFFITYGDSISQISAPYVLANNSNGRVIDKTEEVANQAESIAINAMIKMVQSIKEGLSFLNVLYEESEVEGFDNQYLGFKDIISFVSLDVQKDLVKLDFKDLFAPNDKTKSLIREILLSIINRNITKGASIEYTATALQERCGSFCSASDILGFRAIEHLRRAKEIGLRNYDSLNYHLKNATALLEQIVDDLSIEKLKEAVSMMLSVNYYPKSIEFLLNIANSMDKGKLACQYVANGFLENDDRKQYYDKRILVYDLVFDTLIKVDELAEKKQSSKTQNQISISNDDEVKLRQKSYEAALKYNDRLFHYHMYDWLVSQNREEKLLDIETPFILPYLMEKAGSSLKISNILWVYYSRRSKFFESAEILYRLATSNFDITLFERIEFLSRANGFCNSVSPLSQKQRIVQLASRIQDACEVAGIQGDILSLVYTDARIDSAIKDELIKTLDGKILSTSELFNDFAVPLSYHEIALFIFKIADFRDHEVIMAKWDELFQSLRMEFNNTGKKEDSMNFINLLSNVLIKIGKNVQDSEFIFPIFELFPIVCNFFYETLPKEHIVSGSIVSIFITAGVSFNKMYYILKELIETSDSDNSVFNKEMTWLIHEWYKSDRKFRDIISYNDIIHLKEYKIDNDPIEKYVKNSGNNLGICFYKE

B1: GST-Pom152p^1-111 (domain or fragment, S. cerevisiae, UniProt P39685 1-111, looked up)
chain: MEHRYNVFNDTPRGNHWMGSSVSGSPRPSYSSRPNVNTTRRFQYSDDEPAEKIRPLRSRSFKSTESNISDEKSRISERDSKDRYINGDKKVDIYSLPLISTDVLEISKQRT
B1: the binding result is “binds”.
